Reference: patent US20170267757A1

How the values were obtained:
Experiment in all cases: sandwich ELISA, antibody as capture 100 ng/well, CHO-K1 supernatant, anti-human Ig-HRP
[1] = biological target: CD66c mutant (HPK/HdIII/PstI/klenow)-hFc (human)
[2] = biological target: CD66c-HuIgFc recombinant antigen (human)
[3] = biological target: CD66c mutant (BI/BHI)-hFc (human)
Sequence of CD66c mutant (BI/BHI)-hFc (human) (chain, as listed by the source mutant limits assumed, form in doubt): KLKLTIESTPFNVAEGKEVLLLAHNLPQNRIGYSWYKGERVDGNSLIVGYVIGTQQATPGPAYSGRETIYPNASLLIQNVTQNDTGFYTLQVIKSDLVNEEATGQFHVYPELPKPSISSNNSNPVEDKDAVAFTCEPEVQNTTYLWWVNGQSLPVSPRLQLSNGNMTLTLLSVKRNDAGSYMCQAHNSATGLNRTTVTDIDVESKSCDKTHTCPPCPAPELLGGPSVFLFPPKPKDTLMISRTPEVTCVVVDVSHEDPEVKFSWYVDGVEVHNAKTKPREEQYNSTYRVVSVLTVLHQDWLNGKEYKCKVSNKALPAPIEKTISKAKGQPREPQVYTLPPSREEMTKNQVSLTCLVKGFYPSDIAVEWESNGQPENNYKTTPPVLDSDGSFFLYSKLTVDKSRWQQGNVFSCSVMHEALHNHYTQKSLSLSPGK

Sequence of CD66c mutant (HPK/HdIII/PstI/klenow)-hFc (human) (chain, as listed by the source mutant limits assumed, form in doubt): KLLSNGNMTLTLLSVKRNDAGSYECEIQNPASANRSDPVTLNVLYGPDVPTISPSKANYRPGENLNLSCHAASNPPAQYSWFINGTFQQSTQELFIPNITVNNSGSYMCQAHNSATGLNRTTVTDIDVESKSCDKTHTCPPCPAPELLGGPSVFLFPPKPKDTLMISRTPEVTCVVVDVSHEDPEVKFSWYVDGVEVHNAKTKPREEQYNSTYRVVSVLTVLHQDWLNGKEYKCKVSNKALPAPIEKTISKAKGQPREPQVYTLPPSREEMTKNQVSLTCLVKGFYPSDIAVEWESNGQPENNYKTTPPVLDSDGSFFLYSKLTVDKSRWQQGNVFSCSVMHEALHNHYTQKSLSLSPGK
Sequence of CD66c-HuIgFc recombinant antigen (human) (chain, as listed by the source limits assumed): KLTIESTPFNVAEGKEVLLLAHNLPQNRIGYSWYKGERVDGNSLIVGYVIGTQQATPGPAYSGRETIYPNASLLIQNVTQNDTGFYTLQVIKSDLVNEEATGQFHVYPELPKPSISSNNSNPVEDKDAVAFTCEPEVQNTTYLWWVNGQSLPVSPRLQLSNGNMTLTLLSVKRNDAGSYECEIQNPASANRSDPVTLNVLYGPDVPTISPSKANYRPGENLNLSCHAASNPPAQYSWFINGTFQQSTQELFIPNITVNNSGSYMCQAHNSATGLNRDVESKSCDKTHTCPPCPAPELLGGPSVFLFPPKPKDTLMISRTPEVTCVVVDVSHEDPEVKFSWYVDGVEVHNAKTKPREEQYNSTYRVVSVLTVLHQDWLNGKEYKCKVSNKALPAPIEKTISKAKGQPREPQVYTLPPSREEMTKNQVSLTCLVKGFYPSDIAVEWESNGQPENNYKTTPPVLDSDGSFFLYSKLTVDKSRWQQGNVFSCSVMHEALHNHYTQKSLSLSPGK

An absorbance at 450 nm (absorbance at 450 nm) [1] of 0.049, an absorbance at 450 nm (absorbance at 450 nm) [2] of 2.84 and an absorbance at 450 nm (absorbance at 450 nm) [3] of 1.92 were found for “9A6 anti-CD66c monoclonal antibody (Santa Cruz)” in this work.
